Laboratory results published in IntAct's records for PubMed 25416956.

B1: DNA ligase 4 (Homo sapiens), P49917 (parent)
chain: MAASQTSQTVASHVPFADLCSTLERIQKSKGRAEKIRHFREFLDSWRKFHDALHKNHKDVTDSFYPAMRLILPQLERERMAYGIKETMLAKLYIELLNLPRDGKDALKLLNYRTPTGTHGDAGDFAMIAYFVLKPRCLQKGSLTIQQVNDLLDSIASNNSAKRKDLIKKSLLQLITQSSALEQKWLIRMIIKDLKLGVSQQTIFSVFHNDAAELHNVTTDLEKVCRQLHDPSVGLSDISITLFSAFKPMLAAIADIEHIEKDMKHQSFYIETKLDGERMQMHKDGDVYKYFSRNGYNYTDQFGASPTEGSLTPFIHNAFKADIQICILDGEMMAYNPNTQTFMQKGTKFDIKRMVEDSDLQTCYCVFDVLMVNNKKLGHETLRKRYEILSSIFTPIPGRIEIVQKTQAHTKNEVIDALNEAIDKREEGIMVKQPLSIYKPDKRGEGWLKIKPEYVSGLMDELDILIVGGYWGKGSRGGMMSHFLCAVAEKPPPGEKPSVFHTLSRVGSGCTMKELYDLGLKLAKYWKPFHRKAPPSSILCGTEKPEVYIEPCNSVIVQIKAAEIVPSDMYKTGCTLRFPRIEKIRDDKEWHECMTLDDLEQLRGKASGKLASKHLYIGGDDEPQEKKRKAAPKMKKVIGIIEHLKAPNLTNVNKISNIFEDVEFCVMSGTDSQPKPDLENRIAEFGGYIVQNPGPDTYCVIAGSENIRVKNIILSNKHDVVKPAWLLECFKTKSFVPWQPRFMIHMCPSTKEHFAREYDCYGDSYFIDTDLNQLKEVFSGIKNSNEQTPEEMASLIADLEYRYSWDCSPLSMFRRHTVYLDSYAVINDLSTKNEGTRLAIKALELRFHGAKVVSCLAEGVSHVIIGEDHSRVADFKAFRRTFKRKFKILKESWVTDSIDKCELQEENQYLI
B2: Chorion-specific transcription factor GCMb (Homo sapiens), O75603 (parent)
chain: MPAAAVQEAVGVCSYGMQLSWDINDPQMPQELALFDQFREWPDGYVRFIYSSDEKKAQRHLSGWAMRNTNNHNGHILKKSCLGVVVCTQACTLPDGSRLQLRPAICDKARLKQQKKACPNCHSALELIPCRGHSGYPVTNFWRLDGNAIFFQAKGVHDHPRPESKSETEARRSAIKRQMASFYQPQKKRIRESEAEENQDSSGHFSNIPPLENPEDFDIVTETSFPIPGQPCPSFPKSDVYKATCDLATFQGDKMPPFQKYSSPRIYLPRPPCSYELANPGYTNSSPYPTLYKDSTSIPNDTDWVHLNTLQCNVNSYSSYERSFDFTNKQHGWKPALGKPSLVERTNHGQFQAMATRPYYNPELPCRYLTTPPPGAPALQTVITTTTKVSYQAYQPPAMKYSDSVREVKSLSSCNYAPEDTGMSVYPEPWGPPVTVTRAASPSGPPPMKIAGDCRAIRPTVAIPHEPVSSRTDEAETWDVCLSGLGSAVSYSDRVGPFFTYNNEDF
partner: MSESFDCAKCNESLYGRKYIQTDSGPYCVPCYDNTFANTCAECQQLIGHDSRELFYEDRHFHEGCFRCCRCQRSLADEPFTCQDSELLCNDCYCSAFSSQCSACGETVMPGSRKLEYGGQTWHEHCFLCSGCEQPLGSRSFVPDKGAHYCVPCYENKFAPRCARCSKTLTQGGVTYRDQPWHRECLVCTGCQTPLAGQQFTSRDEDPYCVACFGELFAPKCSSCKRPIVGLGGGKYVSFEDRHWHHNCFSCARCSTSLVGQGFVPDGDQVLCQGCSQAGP
B3: Keratin, type II cytoskeletal 6A (Homo sapiens), P02538 (parent)
chain: MASTSTTIRSHSSSRRGFSANSARLPGVSRSGFSSVSVSRSRGSGGLGGACGGAGFGSRSLYGLGGSKRISIGGGSCAISGGYGSRAGGSYGFGGAGSGFGFGGGAGIGFGLGGGAGLAGGFGGPGFPVCPPGGIQEVTVNQSLLTPLNLQIDPTIQRVRAEEREQIKTLNNKFASFIDKVRFLEQQNKVLETKWTLLQEQGTKTVRQNLEPLFEQYINNLRRQLDSIVGERGRLDSELRGMQDLVEDFKNKYEDEINKRTAAENEFVTLKKDVDAAYMNKVELQAKADTLTDEINFLRALYDAELSQMQTHISDTSVVLSMDNNRNLDLDSIIAEVKAQYEEIAQRSRAEAESWYQTKYEELQVTAGRHGDDLRNTKQEIAEINRMIQRLRSEIDHVKKQCANLQAAIADAEQRGEMALKDAKNKLEGLEDALQKAKQDLARLLKEYQELMNVKLALDVEIATYRKLLEGEECRLNGEGVGQVNISVVQSTVSSGYGGASGVGSGLGLGGGSSYSYGSGLGVGGGFSSSSGRAIGGGLSSVGGGSSTIKYTTTSSSSRKSYKH
partner: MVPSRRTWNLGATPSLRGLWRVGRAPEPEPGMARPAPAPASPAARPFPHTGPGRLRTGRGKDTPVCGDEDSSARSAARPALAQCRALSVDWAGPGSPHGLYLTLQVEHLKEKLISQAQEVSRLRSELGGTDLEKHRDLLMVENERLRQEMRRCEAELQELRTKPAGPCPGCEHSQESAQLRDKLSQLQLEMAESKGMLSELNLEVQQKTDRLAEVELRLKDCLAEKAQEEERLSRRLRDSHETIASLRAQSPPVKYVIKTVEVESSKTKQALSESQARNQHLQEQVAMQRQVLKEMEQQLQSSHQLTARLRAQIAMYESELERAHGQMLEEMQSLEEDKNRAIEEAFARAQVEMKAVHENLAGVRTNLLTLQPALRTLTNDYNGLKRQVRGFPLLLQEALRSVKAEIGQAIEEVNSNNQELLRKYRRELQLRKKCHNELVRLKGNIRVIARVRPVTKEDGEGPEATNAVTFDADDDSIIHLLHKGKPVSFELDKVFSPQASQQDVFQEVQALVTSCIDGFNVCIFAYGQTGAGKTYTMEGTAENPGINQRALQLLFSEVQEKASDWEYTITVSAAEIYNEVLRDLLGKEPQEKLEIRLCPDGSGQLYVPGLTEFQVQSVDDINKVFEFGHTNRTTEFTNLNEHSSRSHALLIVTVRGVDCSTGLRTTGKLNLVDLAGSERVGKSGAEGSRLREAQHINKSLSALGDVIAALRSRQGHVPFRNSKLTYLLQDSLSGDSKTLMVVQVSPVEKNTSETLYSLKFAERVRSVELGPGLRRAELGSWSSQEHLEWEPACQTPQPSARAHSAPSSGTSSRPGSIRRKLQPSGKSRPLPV
B4: Inactive peptidyl-prolyl cis-trans isomerase FKBP6 (Homo sapiens), O75344 (parent)
chain: MGGSALNQGVLEGDDAPGQSLYERLSQRMLDISGDRGVLKDVIREGAGDLVAPDASVLVKYSGYLEHMDRPFDSNYFRKTPRLMKLGEDITLWGMELGLLSMRRGELARFLFKPNYAYGTLGCPPLIPPNTTVLFEIELLDFLDCAESDKFCALSAEQQDQFPLQKVLKVAATEREFGNYLFRQNRFYDAKVRYKRALLLLRRRSAPPEEQHLVEAAKLPVLLNLSFTYLKLDRPTIALCYGEQALIIDQKNAKALFRCGQACLLLTEYQKARDFLVRAQKEQPFNHDINNELKKLASCYRDYVDKEKEMWHRMFAPCGDGSTAGES
partner: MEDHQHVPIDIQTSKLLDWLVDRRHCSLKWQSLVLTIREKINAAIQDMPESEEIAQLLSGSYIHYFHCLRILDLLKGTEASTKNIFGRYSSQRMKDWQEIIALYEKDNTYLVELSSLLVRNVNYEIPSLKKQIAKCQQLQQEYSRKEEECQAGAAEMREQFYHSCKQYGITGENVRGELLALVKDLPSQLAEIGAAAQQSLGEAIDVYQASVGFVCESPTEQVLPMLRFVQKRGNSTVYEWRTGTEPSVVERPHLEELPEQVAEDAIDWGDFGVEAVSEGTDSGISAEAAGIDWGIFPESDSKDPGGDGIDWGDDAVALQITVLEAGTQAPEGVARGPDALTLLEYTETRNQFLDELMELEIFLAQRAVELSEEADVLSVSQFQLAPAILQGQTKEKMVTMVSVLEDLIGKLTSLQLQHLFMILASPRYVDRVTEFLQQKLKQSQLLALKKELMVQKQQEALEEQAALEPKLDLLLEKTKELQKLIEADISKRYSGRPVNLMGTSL
B5: Keratin, type II cytoskeletal 6A (Homo sapiens), P02538 (parent)
chain: B3 chain
B6: EF-hand domain-containing protein 1 (Homo sapiens), Q5JVL4 (parent)
chain: MVSNPVHGLPFLPGTSFKDSTKTAFHRSQTLSYRNGYAIVRRPTVGIGGDRLQFNQLSQAELDELASKAPVLTYGQPKQAPPADFIPAHVAFDKKVLKFDAYFQEDVPMSTEEQYRIRQVNIYYYLEDDSMSVIEPVVENSGILQGKLIKRQRLAKNDRGDHYHWKDLNRGINITIYGKTFRVVDCDQFTQVFLESQGIELNPPEKMALDPYTELRKQPLRKYVTPSDFDQLKQFLTFDKQVLRFYAIWDDTDSMYGECRTYIIHYYLMDDTVEIREVHERNDGRDPFPLLMNRQRVPKVLVENAKNFPQCVLEISDQEVLEWYTAKDFIVGKSLTILGRTFFIYDCDPFTRRYYKEKFGITDLPRIDVSKREPPPVKQELPPYNGFGLVEDSAQNCFALIPKAPKKDVIKMLVNDNKVLRYLAVLESPIPEDKDRRFVFSYFLATDMISIFEPPVRNSGIIGGKYLGRTKVVKPYSTVDNPVYYGPSDFFIGAVIEVFGHRFIILDTDEYVLKYMESNAAQYSPEALASIQNHVRKREAPAPEAESKQTEKDPGVQELEALIDTIQKQLKDHSCKDNIREAFQIYDKEASGYVDRDMFFKICESLNVPVDDSLVKELIRMCSHGEGKINYYNFVRAFSN
B7: Keratin, type II cytoskeletal 2 epidermal (Homo sapiens), P35908 (parent)
chain: MSCQISCKSRGRGGGGGGFRGFSSGSAVVSGGSRRSTSSFSCLSRHGGGGGGFGGGGFGSRSLVGLGGTKSISISVAGGGGGFGAAGGFGGRGGGFGGGSSFGGGSGFSGGGFGGGGFGGGRFGGFGGPGGVGGLGGPGGFGPGGYPGGIHEVSVNQSLLQPLNVKVDPEIQNVKAQEREQIKTLNNKFASFIDKVRFLEQQNQVLQTKWELLQQMNVGTRPINLEPIFQGYIDSLKRYLDGLTAERTSQNSELNNMQDLVEDYKKKYEDEINKRTAAENDFVTLKKDVDNAYMIKVELQSKVDLLNQEIEFLKVLYDAEISQIHQSVTDTNVILSMDNSRNLDLDSIIAEVKAQYEEIAQRSKEEAEALYHSKYEELQVTVGRHGDSLKEIKIEISELNRVIQRLQGEIAHVKKQCKNVQDAIADAEQRGEHALKDARNKLNDLEEALQQAKEDLARLLRDYQELMNVKLALDVEIATYRKLLEGEECRMSGDLSSNVTVSVTSSTISSNVASKAAFGGSGGRGSSSGGGYSSGSSSYGSGGRQSGSRGGSGGGGSISGGGYGSGGGSGGRYGSGGGSKGGSISGGGYGSGGGKHSSGGGSRGGSSSGGGYGSGGGGSSSVKGSSGEAFGSSVTFSFR
partner: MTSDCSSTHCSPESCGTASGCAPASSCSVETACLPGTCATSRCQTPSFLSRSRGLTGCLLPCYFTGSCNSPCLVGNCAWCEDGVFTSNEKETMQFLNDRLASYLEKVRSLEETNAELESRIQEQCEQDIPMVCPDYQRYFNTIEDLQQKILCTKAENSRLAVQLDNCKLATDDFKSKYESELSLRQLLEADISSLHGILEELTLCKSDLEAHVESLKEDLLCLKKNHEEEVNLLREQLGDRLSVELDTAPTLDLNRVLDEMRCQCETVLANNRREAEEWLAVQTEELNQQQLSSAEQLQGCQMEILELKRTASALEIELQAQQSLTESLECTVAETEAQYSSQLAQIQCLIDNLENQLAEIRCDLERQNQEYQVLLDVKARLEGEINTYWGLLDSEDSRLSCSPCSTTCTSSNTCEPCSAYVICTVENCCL

Variants of: B1
Settings: with xrcc4_human XRCC4, Q13426
Chain of xrcc4_human XRCC4, Q13426 (Q13426 whole entry): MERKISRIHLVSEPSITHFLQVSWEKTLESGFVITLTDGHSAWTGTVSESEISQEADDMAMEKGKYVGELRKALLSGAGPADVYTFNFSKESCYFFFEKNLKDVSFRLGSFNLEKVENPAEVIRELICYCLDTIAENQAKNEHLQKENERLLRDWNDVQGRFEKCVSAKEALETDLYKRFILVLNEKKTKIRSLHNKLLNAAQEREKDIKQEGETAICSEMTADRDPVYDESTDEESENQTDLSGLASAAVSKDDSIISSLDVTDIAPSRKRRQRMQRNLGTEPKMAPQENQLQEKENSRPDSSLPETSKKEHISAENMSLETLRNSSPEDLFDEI
With A3V the “effect of a mutation on the interaction” value was “disrupting interaction”.

Variants of: B2
Settings: with fhl3_human FHL3, Q13643
In the case of R47L, the “effect of a mutation on the interaction” value is reported as “disrupting interaction”.

Variants of: B3
Settings: with kifc3_human KIFC3, Q9BVG8
With I462S the “effect of a mutation on the interaction” value was “disrupting interaction”.

Variants of: B3
Settings: with kifc3_human KIFC3, Q9BVG8
Remark: another data set of the same source
For A463P, the “effect of a mutation on the interaction” value was “disrupting interaction”.

Variants of: B3
Settings: with kifc3_human KIFC3, Q9BVG8
Remark: another data set of the same source
In the case of N171K, the “effect of a mutation on the interaction” value is reported as “disrupting interaction”.

Variants of: B4
Settings: with ck5p3_human CDK5RAP3, Q96JB5
For F72L, the “effect of a mutation on the interaction” value was “disrupting interaction”.

Variants of: B5
Settings: with tfp11_human TFIP11, Q9UBB9
Chain of tfp11_human TFIP11, Q9UBB9 (Q9UBB9 whole entry): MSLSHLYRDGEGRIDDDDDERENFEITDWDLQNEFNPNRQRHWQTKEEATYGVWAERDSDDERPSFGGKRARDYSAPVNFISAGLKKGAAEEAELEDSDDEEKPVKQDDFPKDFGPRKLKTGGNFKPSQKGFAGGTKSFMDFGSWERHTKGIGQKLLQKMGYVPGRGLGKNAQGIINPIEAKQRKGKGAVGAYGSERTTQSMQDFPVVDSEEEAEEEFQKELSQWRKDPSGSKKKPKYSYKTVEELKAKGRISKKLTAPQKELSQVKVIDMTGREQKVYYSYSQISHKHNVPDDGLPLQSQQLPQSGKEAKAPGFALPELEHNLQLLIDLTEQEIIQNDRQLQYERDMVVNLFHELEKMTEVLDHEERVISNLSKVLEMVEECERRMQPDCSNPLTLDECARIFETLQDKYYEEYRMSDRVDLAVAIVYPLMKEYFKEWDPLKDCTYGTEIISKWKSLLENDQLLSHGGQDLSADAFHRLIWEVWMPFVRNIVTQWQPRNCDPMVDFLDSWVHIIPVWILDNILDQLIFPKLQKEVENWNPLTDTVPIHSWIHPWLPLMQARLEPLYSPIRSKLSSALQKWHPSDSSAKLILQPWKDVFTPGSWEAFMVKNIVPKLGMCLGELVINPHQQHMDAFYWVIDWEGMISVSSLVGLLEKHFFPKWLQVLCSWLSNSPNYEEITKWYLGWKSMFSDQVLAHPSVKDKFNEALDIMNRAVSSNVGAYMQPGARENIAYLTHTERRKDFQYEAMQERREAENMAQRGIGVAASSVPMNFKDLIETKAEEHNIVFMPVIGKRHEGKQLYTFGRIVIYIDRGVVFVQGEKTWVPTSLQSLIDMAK
With I462S the “effect of a mutation on the interaction” value was “disrupting interaction”.

Variants of: B5
Settings: with tfp11_human TFIP11, Q9UBB9
Remark: another data set of the same source
For A463P, the “effect of a mutation on the interaction” value was “disrupting interaction”.

Variants of: B6
Settings: with itf2_human TCF4, P15884
Chain of itf2_human TCF4, P15884 (P15884 whole entry): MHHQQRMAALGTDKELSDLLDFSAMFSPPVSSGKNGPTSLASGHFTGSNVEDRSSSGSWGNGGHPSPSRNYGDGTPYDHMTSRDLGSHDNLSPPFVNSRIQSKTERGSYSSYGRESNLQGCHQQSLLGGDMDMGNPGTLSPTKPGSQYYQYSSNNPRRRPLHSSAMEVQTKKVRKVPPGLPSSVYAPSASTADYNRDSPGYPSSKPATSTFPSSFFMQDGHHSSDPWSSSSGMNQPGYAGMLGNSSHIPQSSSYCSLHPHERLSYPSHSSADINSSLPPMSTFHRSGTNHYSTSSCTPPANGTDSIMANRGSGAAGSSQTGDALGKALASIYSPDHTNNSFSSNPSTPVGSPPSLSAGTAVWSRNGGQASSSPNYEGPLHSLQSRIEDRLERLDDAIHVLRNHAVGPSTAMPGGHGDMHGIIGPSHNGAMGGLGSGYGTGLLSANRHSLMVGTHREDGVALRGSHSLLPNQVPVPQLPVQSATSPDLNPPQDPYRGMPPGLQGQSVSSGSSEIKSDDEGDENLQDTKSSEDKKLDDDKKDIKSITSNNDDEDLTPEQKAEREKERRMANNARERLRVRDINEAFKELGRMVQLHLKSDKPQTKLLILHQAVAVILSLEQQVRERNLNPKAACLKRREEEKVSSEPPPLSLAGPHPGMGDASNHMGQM
With P77T the “effect of a mutation on the interaction” value was “disrupting interaction”.

Variants of: B6
Settings: with ikzf3_human IKZF3, Q9UKT9
Chain of ikzf3_human IKZF3, Q9UKT9 (Q9UKT9 whole entry): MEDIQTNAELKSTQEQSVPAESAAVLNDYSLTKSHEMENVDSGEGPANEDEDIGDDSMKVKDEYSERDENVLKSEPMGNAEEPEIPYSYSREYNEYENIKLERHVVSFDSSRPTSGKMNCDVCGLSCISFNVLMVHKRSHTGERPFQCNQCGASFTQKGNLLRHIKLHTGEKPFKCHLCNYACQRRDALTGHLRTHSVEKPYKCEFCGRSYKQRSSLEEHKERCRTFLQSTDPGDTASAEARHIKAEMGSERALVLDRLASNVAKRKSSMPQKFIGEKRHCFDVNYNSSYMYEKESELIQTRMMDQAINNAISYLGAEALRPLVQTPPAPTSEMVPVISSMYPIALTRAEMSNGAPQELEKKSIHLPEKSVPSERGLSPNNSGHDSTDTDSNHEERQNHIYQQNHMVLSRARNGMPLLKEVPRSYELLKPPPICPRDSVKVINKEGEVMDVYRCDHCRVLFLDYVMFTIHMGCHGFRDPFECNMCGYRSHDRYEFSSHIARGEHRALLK
For P77T, the “effect of a mutation on the interaction” value was “disrupting interaction”.

Variants of: B6
Settings: with itf2_human TCF4, P15884
Remark: another data set of the same source
A394S was tested, and the “effect of a mutation on the interaction” value was “disrupting interaction”.

Variants of: B6
Settings: with ikzf3_human IKZF3, Q9UKT9
Remark: another data set of the same source
For A394S, the “effect of a mutation on the interaction” value was “disrupting interaction”.

Variants of: B6
Settings: with itf2_human TCF4, P15884
Remark: another data set of the same source
In the case of T508R, the “effect of a mutation on the interaction” value is reported as “disrupting interaction”.

Variants of: B6
Settings: with itf2_human TCF4, P15884
Remark: another data set of the same source
R221H was tested, and the “effect of a mutation on the interaction” value was “disrupting interaction”.

Variants of: B6
Settings: with ikzf3_human IKZF3, Q9UKT9
Remark: another data set of the same source
With R221H the “effect of a mutation on the interaction” value was “disrupting interaction”.

Variants of: B7
Settings: with KRT40, Q6A162
I477N was tested, and the “effect of a mutation on the interaction” value was “disrupting interaction”.

Variants of: B7
Settings: with KRT40, Q6A162
Remark: another data set of the same source
L484P was tested, and the “effect of a mutation on the interaction” value was “disrupting interaction”.
